Measurements from patent CN110616192A.

How the values were obtained:
神经丝轻链(NEFL) (human) [1] = molecular target: 神经丝轻链(NEFL) (human) (UniProt P07196); experiment: indirect ELISA, antigen coated at 5 μg/ml, antibody diluted 10^4-fold
神经丝轻链(NEFL) (human) [2] = molecular target: 神经丝轻链(NEFL) (human) (UniProt P07196); experiment: indirect ELISA titre, serial two-fold dilution of purified antibody
神经丝轻链(NEFL) (human) [3] = molecular target: 神经丝轻链(NEFL) (human) (UniProt P07196); experiment: calculated from the indirect ELISA titre

UniProt P07196, sequence (P07196 1-360 limits assumed): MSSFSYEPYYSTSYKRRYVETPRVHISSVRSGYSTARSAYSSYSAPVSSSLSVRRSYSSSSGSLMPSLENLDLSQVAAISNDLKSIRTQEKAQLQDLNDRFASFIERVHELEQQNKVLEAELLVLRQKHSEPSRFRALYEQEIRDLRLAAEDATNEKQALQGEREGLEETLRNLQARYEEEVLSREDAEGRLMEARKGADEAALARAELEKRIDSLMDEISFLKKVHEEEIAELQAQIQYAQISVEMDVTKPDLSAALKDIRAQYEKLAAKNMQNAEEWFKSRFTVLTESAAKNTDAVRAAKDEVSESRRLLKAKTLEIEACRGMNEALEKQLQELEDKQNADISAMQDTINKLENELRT

Row | OD450 (神经丝轻链(NEFL) (human) [1]) [OD450] | 抗体效价 (神经丝轻链(NEFL) (human) [2]) | Ka (神经丝轻链(NEFL) (human) [3]) [M⁻¹] | Substance
1 | > 1.5 | 1.02e+06 |  | 抗NEFL单克隆抗体OTI2F5 (antibody)
2 | > 1.5 | 512000 |  | 抗NEFL单克隆抗体OTI3G2 (antibody)
3 | > 1.5 | 512000 |  | 抗NEFL单克隆抗体OTI11F8 (antibody)
4 | > 1.5 | 1.02e+06 | 1.4e+09 | 抗人神经丝轻链(NEFL)单克隆抗体OTI11F6 (antibody)
